# Patent US10336829B2, “Intracellular delivery compounds” (Sorrento Therapeutics, Inc., priority 2015, dated 2019)
# B1: ST3G12: Human anti-human STAT3 antibody; heavy chain variable SEQ ID NO: 3, light chain variable SEQ ID NO: 4 (antibody, V domains shown)
# VH: QVQLVQSGAEVKKPGASVKVSCKASGYTFTSYYMHWVRQAPGQGLEWMGIINPSGGSTSYAQKFQGRVTMTRDTSTSTVYMELSSLRSEDTAVYYCARSDYVHSFDIWGQGTMVTVSS
# VL: QPVLTQPPSASALLGASIKLTCTLSSEHSTYTVEWYQQRPGRSPQYIMNVKSDGSYNKGDGIPDRFMGSSSGADRYLTFSNLQSDDEAEYHCGESHRIDGQVGVVFGGGTKLTVL
# How the values were obtained:
# MCF-10A cells = experiment: Caveolin and clathrin-dependent compound 901a uptake in MCF-10A cells; assay type: cell-based, human; conditions: 30 min pretreatment
# From the text: Clathrin-mediated endocytosis is mediated by small vesicles that have a morphologically characteristic coat made up of a complex of proteins that are mainly associated with the cytosolic protein clathrin. Caveolae are the most common reported non-clathrin-coated plasma membrane buds, which exist on the surface of many, but not all cell types. They consist of the cholesterol-binding protein caveolin (Vip21) with a bilayer enriched in cholesterol and glycolipids. Both clathrin mediated endocytosis and caveolae transport extracellular molecules into the cell. 5,000 cells were seeded per well in a 96 well plate, overnight. Cells were pretreated with the clathrin inhibitor Pitstop2 (30 uM or 60 uM) or the caveolin inhibitor filipin (0.5 ug/ml or 1.0 ug/ml) for 30 minutes. […] Cells were fixed and imaged with IncuCyte. DMSO and antibody only were used as controls.
# [1] = system: cellular antigens in U251 cells; experiment: Cell binding of naked ST3G12 versus compound 901a in permeabilized U251 cells (HTFC); conditions: 45 min room temperature, PE anti-human IgG
# Method: After 45 minutes at room temperature, cells were washed twice and incubated with phycoerythrin (PE) conjugated-anti-human IgG for 20 minutes at room temperature in the dark. Cells were then washed and analyzed by high throughput flow cytometry (HTFC). The results are shown in FIG. 9 for assessment of antibody binding to cellular antigens in U251 cells.
# STAT3 [2] = molecular target: T1, STAT3 (Homo sapiens, UniProt P40763); experiment: Biacore T200 affinity to recombinant human STAT3-GST; conditions: Biacore T200, 1:1 (Langmuir) binding model
# Method: (§1) Anti-human Fc antibody (GE, BR-1008-39) was immobilized on a CMS sensor chip to approximately 1000 RU using standard NHS/EDC coupling methodology. Antibodies (approximately 10 ug/ml) were captured for 60 seconds at a flow rate of 10 ul/min Recombinant human STAT3-GST was serially diluted 2-fold into running buffer (HBS-EP+, starting from […]). All measurements were conducted at a flow rate of 30 ul/min Surfaces were regenerated with 3M MgCl2 (from human antibody kit) for 60 seconds. A 1:1 (Langmuir) binding model was used to fit the data.
# GST protein = experiment: Biacore binding to GST protein; conditions: Biacore assay
# Method: as §1
# U251 cells = experiment: Cell penetration in U251 cells by microscopy; assay type: cell-based; conditions: 20 ug/mL, 2 hours at 37° C.
# Method: Briefly, previously cleaned glass coverslips were coated with collagen for 2 hours at 37° C. 100,000 U251 cells were seeded on the coverslips. Media was removed, and cells were rinsed once with fluorobrite. Next, 20 ug/mL of the specified antibody was added for 2 hours at 37° C. Cells were fixed in 4% PFA for 15 minutes and then permeabilized with 0.1% TritonX for 15 minutes. Cells were blocked with 3% BSA for 30 minutes and 1:250 GAH-Alexa fluor 488 was added for 1 hour. Next, 200× wheat germ agglutinin Alexa fluor 555 (WGA 555) and 1:1000 DAPI was added for 30 minutes. Cells were washed 3× with PBS and mounted with prolong gold anti-fade.
# STAT3 [3] = molecular target: T1, STAT3; experiment: Cell binding assay of anti-STAT3 antibodies, fixed and permeabilized cells, flow cytometry; design: endogenous in cells; conditions: MDA-MB-468 and U251 cells, serial dilutions, PE anti-human IgG
# Method: Next, the binding of the candidate anti-STAT3 antibodies to cellular targets was tested in cell binding assays using MDA-MB-435 breast cancer cells and U251 cells. The cells were seeded overnight in a 96 well plate, then fixed with PFA and permeabilized with methanol. Cells were incubated with serial dilutions of the anti-STAT3 antibody candidates ST1A5, ST3G12 and ST5G12 for one hour and 30 minutes. Following incubation, the cells were washed and incubated for 30 minutes with phycoerythrin (PE) conjugated anti-human IgG. Fluorescence was measured on an Intellicyte high-throughput flow cytometry analyzer. […] Bevacizumab (Avastin), a monoclonal antibody that inhibits vascular endothelial growth factor A (VEGF-A) was used as a negative control.
# STAT3 [4] = molecular target: T1, STAT3; experiment: IL-6-stimulated STAT3 phosphorylation ELISA in MCF-10A and MCF-7 cells; assay type: cell-based; design: endogenous in cells; conditions: overnight pre-treatment, IL-6 10 or 40 ng/ml 20 min
# Method: Cells were pre-treated overnight with antibody, and then stimulated with various concentrations of IL-6 for 20 minutes (10 ng/ml or 40 ng/ml). IL-6 is a STAT3 activator. Cells were then lysed and the protein lysates were subjected to ELISA to determine the phosphorylation status. […] “OS-AIP” refers to an oligosaccharide conjugated bacterial AIP protein, used as a control.
# T1 sequence (P40763 whole entry): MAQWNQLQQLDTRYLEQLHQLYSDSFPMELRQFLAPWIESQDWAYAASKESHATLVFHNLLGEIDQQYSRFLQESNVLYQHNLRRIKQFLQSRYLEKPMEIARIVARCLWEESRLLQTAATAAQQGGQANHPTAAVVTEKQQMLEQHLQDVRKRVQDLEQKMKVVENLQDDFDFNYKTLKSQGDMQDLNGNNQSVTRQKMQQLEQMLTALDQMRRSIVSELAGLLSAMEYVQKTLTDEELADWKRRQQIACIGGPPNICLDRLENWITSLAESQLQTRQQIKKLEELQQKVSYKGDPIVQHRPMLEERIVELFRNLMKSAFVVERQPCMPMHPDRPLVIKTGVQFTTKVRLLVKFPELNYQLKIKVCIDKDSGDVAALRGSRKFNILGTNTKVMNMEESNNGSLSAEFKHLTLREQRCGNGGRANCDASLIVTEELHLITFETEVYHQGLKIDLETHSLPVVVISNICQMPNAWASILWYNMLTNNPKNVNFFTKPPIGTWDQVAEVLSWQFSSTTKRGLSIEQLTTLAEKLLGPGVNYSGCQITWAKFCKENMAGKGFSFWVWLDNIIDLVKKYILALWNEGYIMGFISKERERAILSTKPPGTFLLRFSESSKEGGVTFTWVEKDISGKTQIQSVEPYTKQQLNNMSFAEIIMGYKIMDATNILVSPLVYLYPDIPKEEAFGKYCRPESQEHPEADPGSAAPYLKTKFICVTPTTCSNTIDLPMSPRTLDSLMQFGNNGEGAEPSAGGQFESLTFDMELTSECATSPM
molecule,measurement,setting,value
CCCCC[C@@H](O)[C@H]1C(=O)O[C@H](C)[C@@H](O)/C=C/C=C/C=C/C=C/C=C(\C)[C@@H](O)C[C@H](O)C[C@H](O)C[C@H](O)C[C@H](O)C[C@H](O)C[C@@H]1O [filipin],effect of inhibitor on compound 901a uptake,MCF-10A cells; inhibitor 0.5 ug/ml,little effect
same,effect of inhibitor on compound 901a uptake,MCF-10A cells; inhibitor 1.0 ug/ml,greater effect
"O=C1NC(=NS(=O)(=O)c2cccc3ccccc23)S/C1=C\c1ccc(Br)cc1 [PS2, Pitstop2]",effect of inhibitor on compound 901a uptake,MCF-10A cells; inhibitor 30 uM and 60 uM,inhibited compound 901a uptake
B1,binding to cellular antigens in U251 cells,[1],considerably lower
same,Rmax,STAT3 [2],174 RU
same,kd,STAT3 [2],0.000322 s⁻¹
same,ka,STAT3 [2]; STAT3-GST from 100 nm,59700 M⁻¹ s⁻¹
same,binding to GST protein,GST protein,No binding
same,cell penetration / internalization,U251 cells,no internalization
same,binding to STAT3 / cellular antigens (MFI),STAT3 [3],bound STAT3
same,effect on STAT3 phosphorylation,STAT3 [4],little to no effect
